Experimental findings from PMC11144202, “Highly biased agonism for GPCR ligands via nanobody tethering” (Nature Communications, 2024) are described below.

The target of test [1] is T1, native human type-1 parathyroid hormone receptor (hPTHR1) (Homo sapiens, UniProt Q03431).
T1 construct: type-1 parathyroid hormone receptor, human, unmodified receptor on the cell surface; also called WT PTHR1; WT-PTHR1; source: HEK293 (GS22) cells, stably expressing, on cells
Put plainly: flow cytometry on cells; biotin-labeled Nbs or conjugates (500 nM in Fig. 4A, or varying concentrations) incubated 30 min on ice in PBS with 2% BSA with HEK293 cells stably expressing the receptor; detection with streptavidin-APC. As to conditions: one partner purified.

Test [2] deals with T2, PTHR1 extracellular domain (ECD).
T2 chain: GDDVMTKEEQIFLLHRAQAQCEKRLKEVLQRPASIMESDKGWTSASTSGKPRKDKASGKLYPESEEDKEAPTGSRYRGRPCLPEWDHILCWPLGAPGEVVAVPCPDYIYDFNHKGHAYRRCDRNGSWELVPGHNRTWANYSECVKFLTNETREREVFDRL
The test is described as follows: SPR; replicate 2; biotinylated Nb immobilized.

Test [3] shares this target. The test is described as follows: SPR; replicate 2; biotinylated Nb immobilized.
Test [4] shares this target. Put plainly: SPR; mean of two experiments; biotinylated Nb immobilized.
Test [5] has the same target. The test is described as follows: SPR; replicate 1; biotinylated Nb immobilized.
Test [6] has as its target T3, PTHR1 extracellular domain (ECD) (Homo sapiens).
T3 construct: extracellular domain of the type-1 parathyroid hormone receptor; also called PTHR1 ECD; PTHR1 (ECD)
T3 chain: T2 chain
The test is described as follows: SPR; Nb_(PTHR1) and PTHR1 ECD; details in Supplementary Methods. As to conditions: both partners purified.

Test [7] deals with T2, PTHR1 extracellular domain (ECD). Put plainly: SPR; replicate 1; biotinylated Nb immobilized.
Test [8] addresses T4, nanoluciferase-PTHR1 fusion (nLuc-PTHR1) (Homo sapiens, UniProt Q03431).
T4 construct: type-1 parathyroid hormone receptor with nanoluciferase fused to the receptor N-terminus; source: cell line stably expressing the construct, on cells; not shown: nanoluciferase, N-terminal, kept
Put plainly: FRET or BRET; competition on cells expressing nLuc-PTHR1: Nb_(PTHR1)-TMR (1 uM) followed by unlabeled ligand (2 uM), or varying unlabeled ligand added together with Nb_(PTHR1)-TMR (300 nM). Particulars: one partner purified.

Test [9] addresses T5, glucagon-like peptide-1 receptor (GLP1R) (UniProt P43220 24-463).
T5 chain: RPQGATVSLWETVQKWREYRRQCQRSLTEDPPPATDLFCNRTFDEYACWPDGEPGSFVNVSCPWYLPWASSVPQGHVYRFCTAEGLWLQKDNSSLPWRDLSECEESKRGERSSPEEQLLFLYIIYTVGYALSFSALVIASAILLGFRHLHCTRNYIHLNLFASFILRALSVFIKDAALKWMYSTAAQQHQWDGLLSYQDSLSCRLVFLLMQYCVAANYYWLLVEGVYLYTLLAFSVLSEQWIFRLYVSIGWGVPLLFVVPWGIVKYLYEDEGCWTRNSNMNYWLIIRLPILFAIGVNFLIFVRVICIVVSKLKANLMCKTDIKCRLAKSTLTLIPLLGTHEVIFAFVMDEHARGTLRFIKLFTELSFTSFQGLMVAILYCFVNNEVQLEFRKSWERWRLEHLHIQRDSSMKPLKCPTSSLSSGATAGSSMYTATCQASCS
The test is described as follows: SPR; GLP1R-ECD; replicate 2.

Test [10] deals with T5, glucagon-like peptide-1 receptor (GLP1R). The test is described as follows: SPR; GLP1R-ECD; replicate 2.
The target is the same in test [11]. The test is described as follows: SPR; GLP1R-ECD; replicate 1.
Test [12] shares this target. Put plainly: SPR; GLP1R-ECD; replicate 1.

T1 sequence (Q03431 27-593): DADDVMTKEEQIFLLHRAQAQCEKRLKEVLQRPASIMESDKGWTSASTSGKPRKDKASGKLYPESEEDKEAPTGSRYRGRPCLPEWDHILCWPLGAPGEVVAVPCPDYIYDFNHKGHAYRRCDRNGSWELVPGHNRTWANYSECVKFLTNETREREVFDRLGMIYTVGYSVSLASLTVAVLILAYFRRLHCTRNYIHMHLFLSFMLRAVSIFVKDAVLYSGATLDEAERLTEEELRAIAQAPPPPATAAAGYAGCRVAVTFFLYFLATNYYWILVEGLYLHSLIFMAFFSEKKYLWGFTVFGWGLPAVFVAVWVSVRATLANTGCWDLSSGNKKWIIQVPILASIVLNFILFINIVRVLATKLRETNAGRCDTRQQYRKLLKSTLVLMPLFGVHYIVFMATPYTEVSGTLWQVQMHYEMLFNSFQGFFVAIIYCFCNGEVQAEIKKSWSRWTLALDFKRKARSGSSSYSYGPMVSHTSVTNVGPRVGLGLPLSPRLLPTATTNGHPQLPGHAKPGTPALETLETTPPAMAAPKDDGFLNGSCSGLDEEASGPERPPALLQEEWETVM
T4 sequence (Q03431 27-593): as above

B1: Nb_(PTHR1-X2) labeled with biotin (VHH)
VHH: EVQLVESGGGLVQAGGSLRLSCAASGLTFSNYAMGWFRQAPGKEREWVASINWSGGSTYYEDSVEGRFTISRDNAKNTVNLQMNSLKPEDTAVYYCAAKRGHYSREYDYWGQGTQVTVSS
notes: as the chain of m8; His6 is lost in the sortase reaction; also called Nb_(PTHR-X2); source: E. coli BL21(DE3), purified (Ni-NTA, SEC), labeled by sortagging; not shown: His6, C-terminal, cleaved
For B1, the binding result in [1] is reported as “binds”.

B2: Nb_(PTHR1), unlabeled (VHH)
VHH: EVQLVESGGGLVQAGGSLRLSCAASGNIFANNIMGWYRQPPGKEREFVAHVSHDGDSMYAVSVKGRFAISRKDATNLYLQMNSLKPEDTAIYFCRLLNIPTQGRMEGFWGQGTQVTVSS
notes: Expressed from pET26b in frame with pelB and His6; the Nbs for sortagging bear LPETGG followed by His6 at the C-terminus; also called VHH_(PTHR); source: E. coli BL21(DE3), purified (Ni-NTA, SEC)
Consider B2, for which the Kd was 0.9 nM in test [2], 0.7 nM in test [4], 0.5 nM in test [5] and roughly 1 nM in test [6]. For the same molecule, the koff in test [3] turned out to be 0.0015 s⁻¹; in test [7], 0.0065 s⁻¹.

B3: Nb_(PTHR1) labeled with biotin (VHH)
VHH: B2 VHH
notes: as the chain of m5; His6 is lost in the sortase reaction (unreacted protein is captured on nickel NTA beads); also called biotin-labeled Nb_(PTHR1); source: E. coli BL21(DE3), purified (Ni-NTA, SEC), labeled by sortagging; not shown: His6, C-terminal, cleaved
As to B3, the binding result in test [1] was “binds”.

B4: Nb_(PTHR1)-TMR (tetramethylrhodamine-labeled Nb_(PTHR1)) (VHH)
VHH: B2 VHH
notes: as the chain of m5; His6 is lost in the sortase reaction; also called TMR-Nb_(PTHR1); source: E. coli BL21(DE3), purified (Ni-NTA, SEC), labeled by sortagging; not shown: His6, C-terminal, cleaved
Consider B4, for which the binding result in test [8] is reported as “binds”.

B5: Nb_(GLP1R) (VHH)
VHH: EVQLVESGGGLVQAGGSLRLSCAASGNTYSYKVMGWFRQAPGKEREFVGIIIRNGDTTYYADSVKGRFTISADNAKNTVYLQMNSLKPEDTAVYYCAASPKYMTAYERSYDWGQGTQVTVSS
Regarding B5, the koff in test [9] came out at 0.0013 s⁻¹; in [12], 0.0041 s⁻¹. For the same molecule, the Kd was determined as 32 nM in [10] and 24 nM in [11].
